In one assay the target is T1, TBK1 (Homo sapiens, UniProt Q9UHD2).
T1 sequence (Q9UHD2 1-729): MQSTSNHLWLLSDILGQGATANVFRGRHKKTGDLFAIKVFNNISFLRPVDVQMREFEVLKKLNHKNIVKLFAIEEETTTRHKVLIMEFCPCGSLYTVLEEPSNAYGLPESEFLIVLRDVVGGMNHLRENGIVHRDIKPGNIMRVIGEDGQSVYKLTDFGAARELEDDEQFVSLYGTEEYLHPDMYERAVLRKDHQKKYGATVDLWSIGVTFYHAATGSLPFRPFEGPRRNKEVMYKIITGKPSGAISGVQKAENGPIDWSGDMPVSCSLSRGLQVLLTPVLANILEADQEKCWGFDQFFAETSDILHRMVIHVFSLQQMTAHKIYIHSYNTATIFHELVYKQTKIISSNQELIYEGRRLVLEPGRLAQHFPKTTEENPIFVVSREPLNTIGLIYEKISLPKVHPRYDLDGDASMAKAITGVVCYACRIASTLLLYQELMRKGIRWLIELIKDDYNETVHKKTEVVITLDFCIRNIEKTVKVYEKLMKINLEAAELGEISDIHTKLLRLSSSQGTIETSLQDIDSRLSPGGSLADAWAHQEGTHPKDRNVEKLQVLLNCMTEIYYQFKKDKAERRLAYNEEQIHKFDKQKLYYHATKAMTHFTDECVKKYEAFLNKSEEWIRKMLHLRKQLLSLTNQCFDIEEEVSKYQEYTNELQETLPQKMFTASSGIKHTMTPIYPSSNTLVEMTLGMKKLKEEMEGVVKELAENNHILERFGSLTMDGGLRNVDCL
It is filed as binding.

Another assay relates to p47phox. The format is binding.

B1: MPT64: secretory immunodominant antigen of MTB, located in the RD2 region (protein)
chain: APKTYCEELKGTDTGQACQIQMSDPAYNINISLPSYYPDQKSLENYIAQTRDKFLSAATSSTPREAPYELNITSATYQSAIPPRGTQAVVLKVYQNAGGTHPTTTYKAFDWDQAYRKPITYDTLWQADTDPLPVVFPIVQGELSKQTGQQVSIAPNAGLDPVNYQNFAVTNDGVIFFFNPGELLPEAAGPTQVLVPRSAIDSMLA
Turning to B1, the “domain of TBK1 required for binding” value with TBK1 was “The kinase domain (1–301) in TBK1 and HK2 domain in HK2 were found to be essential for their interaction with MPT64”.

B2: MPT63: secretory immunodominant antigen of MTB (protein)
chain: AYPITGKLGSELTMTDTVGQVVLGWKVSDLKSSTAVIPGYPVAGQVWEATATVNAIRGSVTPAVSQFNARTADGINYRVLWQAAGPDTISGATIPQGEQSTGKIYFDVTGPSPTIVAMNNGMEDLLIWEP
Consider B2, for which, in the assay on p47phox, the “domain of p47phox required for binding” value is recorded as “the PX domain in p47phox was important for the interaction with MPT63”. In the assay with TBK1, the “domain of TBK1 required for binding” value is listed as “the kinase domain in TBK1 was essential to bind MPT63”.
